Data published in patent US20130243753A1 (Genentech, published 2013).

Tests used:
human Axl-Fc (human) = human Axl-Fc (human) (UniProt P30530); test: competition ELISA; human Axl-Fc captured on anti-human IgG Fc plate, blocked ligand Gas6 detected with biotinylated anti-Gas6 and streptavidin-HRP
[1] = target: human Axl on the cell surface (HUVEC, A549, H1299, Baf3Axl cells) (human, UniProt P30530 26-894); test: FACS on HUVEC; cells treated with antibody, then Gas6; blocked ligand Gas6 detected with biotinylated anti-Gas6 and streptavidin-PE
human Tyro3-Fc = target: T1, human Tyro3-Fc (human, UniProt Q06418 41-428); test: ELISA; receptor-Fc captured on anti-human IgG Fc coated plate
T1 construct: not shown: Fc part not described
T1 sequence (looked up): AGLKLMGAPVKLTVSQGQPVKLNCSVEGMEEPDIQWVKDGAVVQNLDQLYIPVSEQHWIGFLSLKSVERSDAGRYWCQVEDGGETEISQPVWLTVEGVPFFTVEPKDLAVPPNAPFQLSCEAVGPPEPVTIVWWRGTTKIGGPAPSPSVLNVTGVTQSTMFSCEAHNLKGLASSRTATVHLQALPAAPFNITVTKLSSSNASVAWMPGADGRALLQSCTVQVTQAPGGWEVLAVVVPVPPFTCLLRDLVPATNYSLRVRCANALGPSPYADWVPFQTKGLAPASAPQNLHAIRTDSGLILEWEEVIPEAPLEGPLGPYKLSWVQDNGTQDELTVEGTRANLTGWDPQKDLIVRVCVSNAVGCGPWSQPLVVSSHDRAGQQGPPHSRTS
Description: (§1) Plates were coated with anti-human IgG Fc, and then incubated with human Axl, Mer, Tyro3 Fcs, mouse or cynomolgus AxlFcs. […] FIG. 7D: ELISA. Plates were coated with anti-human IgG Fc and incubated with human Axl-Fc. […] FIG. 7E: FACS. […] A549 cells were incubated with 1 μg/mlYW327.6S2 for indicated time, and cell surface Axl expression was determined by FACS (upper panel), and total protein expression by Western Blotting analysis (lower panel). […] Phosphorylated Axl was measured by ELISA (upper panel), and phosphorylated Akt by Western Blotting analysis (lower panel). […] Cell viability was measured by CellTiter Glo assay.
(§2) ELISA assays were performed as follows: goat anti-human IgG Fc coated plates were blocking with 0.5% BSA, PBS, 0.05% Tween 20 (PBST). For cross reaction assay, coated plates were incubated with human Axl.Fc, mouse Axl.Fc or human Mer.Fc, Tyro-3.Fc for 1 hr at room temperature, washed four times in PBST, incubated with anti-Axl mAbs and HRP-conjugated anti-mouse Ig. […] Plates were washed four times in PBST, incubated with biotinylated anti-mGas6 and strepavidin-HRP. Secreted Ang-2 and DKK3 was measured using R&D ELISA kit, according to the manufacturer's instruction.

human Mer-Fc = target: T2, human Mer-Fc (human, UniProt Q12866 26-499); test: as above
T2 construct: not shown: Fc part not described
T2 sequence (looked up): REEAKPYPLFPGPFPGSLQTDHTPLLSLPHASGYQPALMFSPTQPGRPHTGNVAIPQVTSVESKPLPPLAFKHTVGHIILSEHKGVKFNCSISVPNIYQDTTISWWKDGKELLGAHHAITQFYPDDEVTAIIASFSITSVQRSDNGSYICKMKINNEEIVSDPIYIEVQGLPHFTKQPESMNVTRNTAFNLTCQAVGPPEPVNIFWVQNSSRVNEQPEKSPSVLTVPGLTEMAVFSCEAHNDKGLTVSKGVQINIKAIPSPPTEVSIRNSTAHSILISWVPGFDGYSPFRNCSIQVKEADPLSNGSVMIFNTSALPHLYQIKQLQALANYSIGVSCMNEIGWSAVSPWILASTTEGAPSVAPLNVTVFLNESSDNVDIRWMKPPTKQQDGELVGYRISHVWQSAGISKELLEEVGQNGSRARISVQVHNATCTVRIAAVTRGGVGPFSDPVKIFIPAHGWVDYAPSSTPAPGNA
Description: as §1, §2

[2] = target: human Axl ECD-His protein (human) (UniProt P30530); test: SPR (BIAcore-3000): IgG captured by anti-human IgG, human Axl ECD-His injected
[3] = target: T3, murine Axl ECD-Fc fusion protein (murine; human, UniProt Q00993 19-445); test: SPR (BIAcore-3000): murine Axl ECD-Fc captured by anti-human IgG, anti-Axl Fab injected
T3 construct: extracellular domain; also called murine Axl ECD human IgG fusion protein; mouse Axl.Fc; not shown: human IgG Fc
Description: Association rates (kₒₙ) and dissociation rates (koff) were calculated using a simple one-to-one Langmuir binding model (BIAcore Evaluation Software version 3.2).

Sequence of human Axl on the cell surface (HUVEC, A549, H1299, Baf3Axl cells) (P30530 other isoform, or with tags, fused parts or gaps limits assumed): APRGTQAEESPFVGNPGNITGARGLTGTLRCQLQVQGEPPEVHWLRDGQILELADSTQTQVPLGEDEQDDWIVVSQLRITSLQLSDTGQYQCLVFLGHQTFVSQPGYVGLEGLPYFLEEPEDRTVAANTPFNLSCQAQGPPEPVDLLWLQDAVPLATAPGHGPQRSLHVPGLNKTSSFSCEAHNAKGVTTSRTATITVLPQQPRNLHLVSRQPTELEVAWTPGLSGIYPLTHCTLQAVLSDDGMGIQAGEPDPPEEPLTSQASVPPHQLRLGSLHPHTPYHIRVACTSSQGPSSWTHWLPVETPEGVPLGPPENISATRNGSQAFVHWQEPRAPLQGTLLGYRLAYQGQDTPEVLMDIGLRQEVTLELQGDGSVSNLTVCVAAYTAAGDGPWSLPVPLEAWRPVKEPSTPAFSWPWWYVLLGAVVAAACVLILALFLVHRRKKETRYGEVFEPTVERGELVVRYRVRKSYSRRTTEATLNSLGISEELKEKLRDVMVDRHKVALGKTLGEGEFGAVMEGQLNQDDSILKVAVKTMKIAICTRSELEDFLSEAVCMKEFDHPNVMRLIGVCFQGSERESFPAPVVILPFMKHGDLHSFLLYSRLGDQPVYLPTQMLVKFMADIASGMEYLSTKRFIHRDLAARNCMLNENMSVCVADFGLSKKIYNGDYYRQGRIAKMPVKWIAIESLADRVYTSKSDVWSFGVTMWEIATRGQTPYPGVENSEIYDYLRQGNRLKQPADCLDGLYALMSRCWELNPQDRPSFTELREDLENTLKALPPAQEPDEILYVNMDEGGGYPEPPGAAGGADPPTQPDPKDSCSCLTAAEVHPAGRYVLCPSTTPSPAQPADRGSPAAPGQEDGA
T3 sequence (Q00993 19-445): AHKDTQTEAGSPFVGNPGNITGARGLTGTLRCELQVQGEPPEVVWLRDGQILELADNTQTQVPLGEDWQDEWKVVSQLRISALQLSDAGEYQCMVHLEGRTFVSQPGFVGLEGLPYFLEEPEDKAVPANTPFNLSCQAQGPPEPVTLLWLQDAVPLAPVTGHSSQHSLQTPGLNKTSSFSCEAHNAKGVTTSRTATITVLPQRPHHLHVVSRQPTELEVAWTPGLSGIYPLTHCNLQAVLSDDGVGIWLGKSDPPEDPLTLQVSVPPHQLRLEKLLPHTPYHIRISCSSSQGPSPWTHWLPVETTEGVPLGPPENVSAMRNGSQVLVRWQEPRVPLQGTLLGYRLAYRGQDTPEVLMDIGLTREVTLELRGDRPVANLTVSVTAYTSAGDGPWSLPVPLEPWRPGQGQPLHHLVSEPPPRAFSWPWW
Sequence of human Axl-Fc (human) (P30530 other isoform, or with tags, fused parts or gaps, form in doubt): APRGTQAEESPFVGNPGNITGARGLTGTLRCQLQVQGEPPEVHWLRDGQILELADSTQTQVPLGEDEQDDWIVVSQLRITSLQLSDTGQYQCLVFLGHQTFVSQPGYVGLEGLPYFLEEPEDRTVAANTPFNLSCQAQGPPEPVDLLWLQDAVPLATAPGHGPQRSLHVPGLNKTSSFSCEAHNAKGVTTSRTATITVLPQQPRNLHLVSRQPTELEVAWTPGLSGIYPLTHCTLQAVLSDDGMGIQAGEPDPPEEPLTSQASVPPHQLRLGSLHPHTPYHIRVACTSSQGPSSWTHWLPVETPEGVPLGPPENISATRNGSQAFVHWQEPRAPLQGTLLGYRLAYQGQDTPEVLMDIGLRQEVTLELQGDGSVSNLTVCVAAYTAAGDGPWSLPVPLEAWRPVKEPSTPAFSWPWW

B1: Affinity matured Axl mAb YW327.6S2 (full-length human IgG) (antibody, V domains shown)
VH: EVQLVESGGGLVQPGGSLRLSCAASGFSLSGSWIHWVRQAPGKGLEWVGWINPYRGYAYYADSVKGRFTISADTSKNTAYLQMNSLRAEDTAVYYCAREYSGWGGSSVGYAMDYWGQGTLVTVSS
VL: DIQMTQSPSSLSASVGDRVTITCRASQDVSTAVAWYQQKPGKAPKLLIYSASFLYSGVPSRFSGSGSGTDFTLTISSLQPEDFATYYCQQSYTTPPTFGQGTKVEIK
notes: No sentence ties these to this name, so they are not used; also called YW327.652
IC50 (read off the curve) (human Axl-Fc (human)): 0.02 µg/mL | IC50 (read off the curve) [1]: ~0.1 µg/mL | binding result (human Tyro3-Fc): no binding (tested: concentration not shown) | binding result (human Mer-Fc): no binding (tested: concentration not shown) | Kd [2]: 1 nM

B2: YW327.6S2 Fab fragment (Fab, V domains shown)
VH: EVQLVESGGGLVQPGGSLRLSCAASGFSLSGSWIHWVRQAPGKGLEWVGWINPYRGYAYYADSVKGRFTISADTSKNTAYLQMNSLRAEDTAVYYCAREYSGWGGSSVGYAMDYWGQGTLVTVSS
VL: DIQMTQSPSSLSASVGDRVTITCRASQDVSTAVAWYQQKPGKAPKLLIYSASFLYSGVPSRFSGSGSGTDFTLTISSLQPEDFATYYCQQSYTTPPTFGQGTKVEIK
notes: The result sentence names only the mAb; also called anti-Axl Fab fragment; YW327.652
Kd [3]: 0.545 nM
